Assay results from article PMC5972394.

Target: Mycobacterium thermoresistible (Mth) IMPDH ΔCBS (Mycobacterium thermoresistible)
Test: crystal structure

How did the stoichiometry N turn out when “Mycobacterium thermoresistible (Mth) IMPDH ΔCBS (enzyme)” was run?
Its stoichiometry N is 4.
